Our source for the Kd values is patent publication US20260015316.

This data set concerns ONECUT2 (OC2) HOX domain. Description: SPR. To be noted: OC2 HOX fragment; DNA probe sequence not given.

pKd: −log10 of the molar value.

Substance PEG10 promoter OC2 binding motif probe showed a pKd of 9.00.

As a reminder, the pKd is the negative decadic logarithm of the Kd, by convention in mol/L.
